Publication PMC11398520 (bioRxiv, 2024)

What was measured:
[1] = target: PS2 S-layer protein of Corynebacterium glutamicum (ex-vivo S-layer) (Corynebacterium glutamicum); test: cryo-EM structure
negative-stain EM = target: the molecule itself; test: negative-stain EM

Molecule	stoichiometry N [1]	binding result (negative-stain EM)
PS2 S-layer protein of Corynebacterium glutamicum (ex-vivo S-layer) (natural protein)	6	
PS2 assembly domain (PS2^AD; residues 30 to 483) (domain or fragment) AQETNPTFNITNGFNDADGSTIQPVGPVNHTEETLRDLTDSTGAYLEEFQNGTVEEIVEAYLQVQASADGFDPSEQAAYEAFEAARVRASQELAASAETITKTRESVAYALKVDQEATAAFEAYRNALRDAAISINPDGSINPDTSINLLIDAANAANRTDRAEIEDYAHLYTQTDIALETPQLAYAFQDLKALQAEVDADFEWLGEFGIDQEDGNYVQRYHLPAVEALKAEVDARVAAIEPLRADSIAKNLEAQKSDVLVRQLFLERATAQRDTLRVVEAIFSTSARYVELYENVENVNVENKTLRQHYSALIPNLFIAAVANISELNAADAEAAAYYLHWDTDLATNDEDEAYYKAKLDFAIETYAKILFNGEVWQEPLAYVQNLDAGARQEAADREAARAADEAYRAEQLRIAQEAADAQKAIAEALAKEAEGNNDNSSDNTETGSSDIGS		binds
